The source of these data is US20040005687A1, “Kinase crystal structures” (priority 2001, published 2004).

Like-named read-outs stand apart in the source and are kept apart here. Square brackets hold non-standard residues; d marks the D form. Ends that are not written are not given here. Peptide text beside a SMILES is read from it. pS = N[C@@H](COP(=O)(O)O)C(=O)O

A word on the Kd: it is the concentration at which binding is half-saturated. Lower therefore signals a tighter complex.

The target in data set [1] is T1, pΔPH-PKB-ΔC (PKBβ residues 146 to 460, phosphorylated in vitro on Thr-309) (Homo sapiens, UniProt P31751).
T1 construct: pΔPH-PKB-ΔC (residues 146 to 460, phosphorylated in vitro on Thr-309); 6xHis (pFastBacHTa, TEV-cleavable) (N, cleaved yes); made in house; host or cells: Sf9 insect cells / baculovirus
Briefly: Protein kinase B assay, peptide stimulation of pΔPH-PKB-ΔC (Crosstide substrate). It is filed as biochemical. To be noted: for maximal fold induction at 600 µM: read-out: maximum activation (fold stimulation) of pΔPH-PKB-ΔC kinase activity; for fold lower affinity than PIFtide (from EC50 values): relative to PIFtide. The method, then:
To test the model that Ser 474 phosphorylation promotes an interaction between the hydrophobic motif and the induced hydrophobic groove of the N-terminal lobe, thereby causing an allosteric activation of the kinase, the ability of peptides modelled on the hydrophobic motif of PKB to activate the enzyme via an intermolecular association with the N-terminal lobe was assessed.
(§1) PKB was assayed essentially as described by Andjelkovic et al. (1999) with 30 μM Crosstide (GRPRTSSAEG) as substrate except the protein kinase A inhibitor peptide was not added to the reactions. For peptide stimulation experiments the various peptides were dissolved in water and added to the kinase assay mix prior to adding the PKB protein. Peptides were synthesized by Franz Fischer at the FMI or purchased from Neosystem, Strasburg, France.
(§2) All experiments were performed in either duplicate or triplicate.

Data set [2] addresses T2, ΔPH-PKB phosphorylated on Thr 309 (Homo sapiens, UniProt P31751).
T2 construct: ΔPH-PKBβ (residues 146-481) on Thr309 Using PDK1; 6xHis (pFastBacHTa, TEV-cleavable) (N, cleaved yes); made in house; host or cells: Sf9 insect cells / baculovirus
Briefly: Protein kinase B assay, peptide stimulation of ΔPH-PKB phosphorylated on Thr 309. It is filed as biochemical. The procedure:
as §1, §2

Data set [3] concerns the target T3, His tagged pΔPH-PKB-ΔC wild type (Homo sapiens, UniProt P31751).
T3 construct: pΔPH-PKB-ΔC (residues 146 to 460, phosphorylated in vitro on Thr-309); His tag; made in house; host or cells: HEK cells (transient expression), purified on Ni-NTA
Kind of data set: PIFtide responsiveness of His tagged pΔPH-PKB-ΔC wild type expressed in HEK cells. It is filed as biochemical. The procedure: To test the notion that a hydrophobic groove is induced in PKB to engage the hydrophobic motif, and activate the kinase, a series of His tagged pΔPH-PKB-ΔC hydrophobic groove mutants was prepared and their responsiveness to PIFtide assessed. PKB mutants were transiently expressed in HEK cells, phosphorylated in vitro with PDK1, and purified using Ni-NTA agarose.
Wild type PKB prepared using this procedure was stimulated ˜5-fold by 130 μM PIFtide (FIG. 6B).
as §1

The target in data set [4] is T4, ΔPH-PKB-ΔC (PKBβ residues 146 to 460, not phosphorylated on Thr-309) (Homo sapiens, UniProt P31751).
T4 construct: ΔPH-PKB-ΔC(residues 146 to 460, not phosphorylated on Thr-309); 6xHis (pFastBacHTa, TEV-cleavable) (N, cleaved yes); made in house; host or cells: Sf9 insect cells / baculovirus
Briefly: Protein kinase B assay, peptide stimulation of ΔPH-PKB-ΔC with unphosphorylated Thr 309. It is filed as biochemical. The method, then: as §1, §2

Data set [5] concerns the target T5, ΔPH-PKB phosphorylated on both Thr 309 and Ser 474 (Homo sapiens, UniProt P31751).
T5 construct: ΔPH-PKBβ (residues 146-481) on Thr309 Using PDK1; 6xHis (pFastBacHTa, TEV-cleavable) (N, cleaved yes); made in house; host or cells: Sf9 insect cells / baculovirus
Kind of data set: Protein kinase B assay, peptide stimulation of ΔPH-PKB phosphorylated on both Thr 309 and Ser 474. The data set is classed as biochemical. The method, then:
as §1, §2

In data set [6] the target is pΔPH-PKBβ-ΔC (human PKBβ residues 146-460, phosphorylated in vitro on Thr-309) (human) (UniProt P31751). Kind of data set: isothermal titration calorimetry, PIFtide titrated into the kinase domain. For orientation: Isothermal titration calorimetry measures the heat released or taken up as one component is titrated into another.
For data set [7], the target named is ΔPH-PKBβ-ΔC (human PKBβ residues 146-460, not phosphorylated on Thr-309) (human) (UniProt P31751). The data set is described as above.
Data set [8] addresses pΔPH-PKBβ-ΔC (human PKBβ residues 146-460, phosphorylated in vitro on Thr-309) (human) (UniProt P31751). Kind of data set: cell-based or functional assay.
The target of data set [9] is His tagged pΔPH-PKB-ΔC V194A-V198A mutant (human) (UniProt P31751). Briefly: cell-based or functional assay.
The target in data set [10] is ΔPH-PKB (human PKBβ residues 146-481) phosphorylated on Thr 309 (human) (UniProt P31751). Briefly: cell-based or functional assay.
Data set [11] has as its target His tagged pΔPH-PKB-ΔC, wild type, expressed in HEK cells (human) (UniProt P31751). Briefly: cell-based or functional assay.
The target in data set [12] is ΔPH-PKBβ-ΔC (human PKBβ residues 146-460, not phosphorylated on Thr-309) (human) (UniProt P31751). Kind of data set: isothermal titration calorimetry.
Data set [13] has as its target pΔPH-PKBβ-ΔC (human PKBβ residues 146-460, phosphorylated in vitro on Thr-309) (human) (UniProt P31751). Kind of data set: cell-based or functional assay. This is another data set of the same source.

T1 sequence (P31751 146-460, stated change not applied): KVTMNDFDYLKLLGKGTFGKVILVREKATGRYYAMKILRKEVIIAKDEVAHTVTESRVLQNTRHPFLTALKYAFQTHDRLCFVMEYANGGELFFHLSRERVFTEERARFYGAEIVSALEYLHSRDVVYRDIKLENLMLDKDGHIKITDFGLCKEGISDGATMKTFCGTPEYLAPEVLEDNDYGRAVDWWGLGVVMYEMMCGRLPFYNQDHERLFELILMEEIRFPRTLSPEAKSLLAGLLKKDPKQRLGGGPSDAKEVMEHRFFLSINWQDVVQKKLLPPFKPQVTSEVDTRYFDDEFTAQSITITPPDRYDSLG
T3 sequence (P31751 146-460, stated change not applied): as above
His tagged pΔPH-PKB-ΔC, wild type, expressed in HEK cells (human), sequence (P31751 146-460, stated change not applied): as above
T4 sequence (P31751 146-460, stated change not applied): as above
T2 sequence (P31751 146-481, stated change not applied): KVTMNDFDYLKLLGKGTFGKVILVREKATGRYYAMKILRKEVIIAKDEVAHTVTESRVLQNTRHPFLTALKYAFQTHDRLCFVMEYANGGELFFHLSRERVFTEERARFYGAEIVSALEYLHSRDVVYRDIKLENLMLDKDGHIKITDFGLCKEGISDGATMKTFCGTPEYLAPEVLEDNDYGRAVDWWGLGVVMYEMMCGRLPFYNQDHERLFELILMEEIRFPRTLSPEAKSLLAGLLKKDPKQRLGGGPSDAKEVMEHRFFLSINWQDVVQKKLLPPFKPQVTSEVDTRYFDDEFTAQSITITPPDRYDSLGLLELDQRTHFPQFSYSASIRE
T5 sequence (P31751 146-481, stated change not applied): as above
His tagged pΔPH-PKB-ΔC V194A-V198A mutant (human), sequence (P31751 146-460 V194A/V198A): as the sequence (P31751 146-460, stated change not applied) above, with V49A, V53A counted along it

Take `CC[C@H](C)[C@H](NC(=O)[C@H](Cc1ccc(O)cc1)NC(=O)[C@H](CC(=O)O)NC(=O)[C@H](Cc1ccccc1)NC(=O)[C@H](CC(=O)O)NC(=O)[C@H](CCCNC(=N)N)NC(=O)[C@H](Cc1ccccc1)NC(=O)[C@H](CCSC)NC(=O)[C@H](CCC(=O)O)NC(=O)[C@H](CCC(N)=O)NC(=O)[C@H](CCC(=O)O)NC(=O)[C@H](CCC(=O)O)NC(=O)[C@H](CCC(=O)O)NC(=O)[C@H](CO)NC(=O)[C@H](CC(C)C)NC(=O)[C@@H](NC(=O)[C@H](CCCNC(=N)N)NC(=O)[C@@H]1CCCN1C(=O)[C@H](CCC(=O)O)NC(=O)[C@@H](N)CCCNC(=N)N)[C@@H](C)CC)C(=O)N[C@@H](C)C(=O)N[C@@H](CC(=O)O)C(=O)N[C@@H](Cc1c[nH]c2ccccc12)C(=O)O` [PIFtide, reference compound] (H-REPRILSEEEQEMFRDFDYIADW-OH; N-terminus and C-terminus assumed): the maximal fold induction at 600 µM in data set [1] amounted to 15. Moreover, the “activation of ΔPH-PKB phosphorylated on Thr 309” value in [2] was found to be 5 fold. Moreover, the fold induction at 130 µM in data set [3] (read-out: stimulation of wild type PKB prepared from HEK cells) was about 5.

For `CC[C@H](C)[C@H](NC(=O)[C@H](CO)NC(=O)[C@H](C)NC(=O)[C@H](CO)NC(=O)[C@H](Cc1ccc(O)cc1)NC(=O)[C@H](CC(=O)O)NC(=O)[C@H](Cc1ccccc1)NC(=O)[C@H](CCC(N)=O)NC(=O)[C@@H]1CCCN1C(=O)[C@H](Cc1ccccc1)NC(=O)[C@H](Cc1c[nH]cn1)NC(=O)[C@@H](NC(=O)[C@H](CCCNC(=N)N)NC(=O)[C@H](CCC(N)=O)NC(=O)[C@H](CC(=O)O)NC(=O)[C@H](CC(C)C)NC(=O)[C@H](CCC(=O)O)NC(=O)[C@H](CC(C)C)NC(=O)[C@H](CC(C)C)NC(=O)CN)[C@@H](C)O)C(=O)N[C@@H](CCCNC(=N)N)C(=O)N[C@@H](CCC(=O)O)C(=O)O` [PKB HM-D] (H-GLLELDQRTHFPQFDYSASIRE-OH; N-terminus and C-terminus assumed), in [1], the maximal fold induction at 600 µM worked out at 3 and the “fold lower affinity than PIFtide (from EC50 values)” value is reported as about 1000 fold.

In the case of `CC[C@H](C)[C@H](NC(=O)[C@H](CO)NC(=O)[C@H](C)NC(=O)[C@H](CO)NC(=O)[C@H](Cc1ccc(O)cc1)NC(=O)[C@H](COP(=O)(O)O)NC(=O)[C@H](Cc1ccccc1)NC(=O)[C@H](CCC(N)=O)NC(=O)[C@@H]1CCCN1C(=O)[C@H](Cc1ccccc1)NC(=O)[C@H](Cc1c[nH]cn1)NC(=O)[C@@H](NC(=O)[C@H](CCCNC(=N)N)NC(=O)[C@H](CCC(N)=O)NC(=O)[C@H](CC(=O)O)NC(=O)[C@H](CC(C)C)NC(=O)[C@H](CCC(=O)O)NC(=O)[C@H](CC(C)C)NC(=O)[C@H](CC(C)C)NC(=O)CN)[C@@H](C)O)C(=O)N[C@@H](CCCNC(=N)N)C(=O)N[C@@H](CCC(=O)O)C(=O)O` [PKB HM-P, GLLELDQRTHFPQFpSYSASIRE] (H-GLLELDQRTHFPQF[pS]YSASIRE-OH; N-terminus and C-terminus assumed), the maximal fold induction at 600 µM in data set [1] worked out at 4. The “fold lower affinity than PIFtide (from EC50 values)” value in data set [1] (listed as phosphorylated HM-peptide) is listed as about 1000 fold. For the same molecule, in data set [4], the “activation of ΔPH-PKB-ΔC with unphosphorylated Thr 309 (in words)” value was “unable to activate”. For the same molecule, the “activation of wild type PKB prepared from HEK cells (in words)” value in data set [3] is recorded as “did not elicit measurable activation”. For the same molecule, the “further activation of ΔPH-PKB phosphorylated on both Thr 309 and Ser 474 (in words)” value in data set [5] is on record as “did not further activate”.

As to GLLELDQRTHFPQFSYSASIRE [PKB HM-S], the “stimulation of pΔPH-PKB-ΔC kinase activity (in words)” value in data set [1] (Crosstide substrate, dose response FIG. 5) is recorded as “did not stimulate”.

Regarding “MFRDFDYIADW [PIFtide1, 11-residue peptide encompassing the six-residue hydrophobic motif of PIFtide]”, in data set [1] (PIFtide concentrations 210-250 μM, PKB HM-peptide up to 1.2 mM, FIG. 6A), the “activation of pΔPH-PKB-ΔC by modified PIFtide and HM peptides (in words)” value was “essentially recapitulates the activation”.

Consider PIFtide (peptide), for which the Kd in [6] was 6 µM. Moreover, the Kd in [7] amounted to 5.5 µM. In data set [8], this molecule gave an EC50 of kinase activation of 3 µM, a peptide concentration giving maximum activation of 20 µM, a specific activity when maximally activated by PIFtide of 350 nmol/min/mg and a stimulation of kinase activity towards Crosstide of 15 fold. In data set [9], the PIFtide activation relative to wild type (% of wild type) was determined as 25. Moreover, in data set [10], the stimulation of kinase activity towards Crosstide was determined as 5 fold. The molecule further returned a stimulation of kinase activity by 130 µM PIFtide in data set [11] of 5 fold. In data set [12], this molecule yielded an enthalpy change (ΔH) of -16 kcal/mol and an entropy term (TΔS) of -9.2 kcal/mol.

B1: PKB HM-D (peptide)
peptide: GLLELDQRTHFPQFDYSASIRE
On to B1, for which, in [13], the EC50 of kinase activation (estimated from FIG. 5A) is 3600 µM; the fold lower affinity than PIFtide, from estimated EC50 was 1000 fold; the stimulation of kinase activity towards Crosstide came to 3 fold.

B2: PKB HM-P (peptide)
peptide: GLLELDQRTHFPQF[pS]YSASIRE
For the molecule B2, in data set [13], the EC50 of kinase activation (estimated from FIG. 5A) was 2300 µM; the fold lower affinity than PIFtide, from estimated EC50 is 1000 fold; the stimulation of kinase activity towards Crosstide is 4 fold.
